Source: PMC6888979 (The Journal of Experimental Medicine, 2019)

Biological target: the molecule itself

B1: soluble recombinant ectodomain of murine FIBCD1 (mFIBCD1^Ecto) (domain or fragment)
chain: NHTHTPGTAPPPIVSTGTAGANSALVTVERADSSHLSLLIDPRCPDLTDSFARLEGIQASILRALSEHQAQPRLDGAPELLDALADQLPRLLTRASELQAECAGLRKGHSLLGQGLSTLQSEQGRLIQLLSESQGHMAHLVNSVSDVLEALQRERGLGRPRVKADLQRAPSRGARPRGCANGSRPRDCLDVLLSGQQDDGVYSIFPTHYPAGFQVYCDMRTDGGGWTVFQRREDGSVNFFRGWEAYREGFGKLTGEHWLGLKRIHALTTQAAYELHVDLEDFDNGTAYAHYGSFGVGLFSVDPEEDGYPLTVADYSGTAGDSLLKHSGMRFTTKDRDSDHSENNCAAFYRGAWWYRNCHTSNLNGQYLRGAHASYADGVEWSSWTGWQYSLKFSEMKIRPVREDR
In the case of B1, the “stoichiometry N” value is reported as 4.
